Experimental data from article PMC7998613, “Annexin A2 Flop-Out Mediates the Non-Vesicular Release of DAMPs/Alarmins from C6 Glioma Cells Induced by Serum-Free Conditions” (Cells, 2021).

Tests used:
[1] = molecular target: T1, recombinant Strep-tagII-S100A13 protein; test: ELISA; vehicle 0.05% DMSO
T1 chain: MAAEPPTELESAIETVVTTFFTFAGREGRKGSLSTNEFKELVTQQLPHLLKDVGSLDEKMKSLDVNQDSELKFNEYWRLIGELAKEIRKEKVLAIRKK

[2] = molecular target: the molecule itself; test: SDS-resistant band on the immunoblot of the pull-down eluate; The Strep-tagII-S100A13 pull-down eluate from the C6 glioma cytosolic fraction was run on SDS-PAGE and blotted with anti-ANXA2. The 63 kDa band is read as the ANXA2 dimer.
[3] = molecular target: T1, recombinant Strep-tagII-S100A13 protein; test: ELISA; 100 uM amlexanox

- Kd [1]: 416 nM
- Kd [3]: 418 nM
B1: annexin A2 (ANXA2), endogenous in C6 glioma cells (natural protein, rat (endogenous in C6 glioma cells), UniProt Q07936 1-339, looked up)
chain: MSTVHEILCKLSLEGDHSTPPSAYGSVKPYTNFDAERDALNIETAIKTKGVDEVTIVNILTNRSNAQRQDIAFAYQRRTKKELPSAMKSALSGHLETVMLGLLKTPAQYDASELKASMKGLGTDEDSLIEIICSRTNQELQEINRVYKEMYKTDLEKDIISDTSGEFRKLLVALAKGKRAEDGSVIDYELIDQDARELYDAGVKRKGTDVPKWISIMTERSVCHLQKVFERYKSYSPYDMLESIRKEVKGDLENAFLNLVQCIQNKPLYFADRLYDSMKGKGTRDKVLIRIMVSRSEVDMLKIRSEFKRKYGKSLYYFIQQDTKGDYQKALLYLCGGDD
notes: annexin A2, rat, endogenous in C6 glioma cells; In whole cell extracts it ran as a single band; also called dimeric ANXA2 of 63 kDa; ANXA2 dimer; source: endogenous, rat C6 glioma cells (cytosolic fraction; fixed cells for in situ PLA)
- stoichiometry N [2]: 2
